Source: PMC8752127 (Structure(London, England:1993), 2022)

Target: CEP164^1−109 (N-terminal domain of human CEP164), untagged (human, UniProt Q9UPV0)
Experiment: crystal structure; nanobody and CEP164 1-109 (or the TTBK2 1074-1087-CEP164 1-109 fusion protein) mixed equimolar; vapour diffusion at 19°C
Conditions: both partners purified

binding result: binds
B1: camelid nanobody 36Z (VHH)
VHH: QVQLQESGGGLVQAGGSLNLSCVASGSSHFNSMGWYRQAPGKQRDLVADISNDGVTNYADSVKDRFTISTNNAKNAVYLQMNNLKPEDTAVYYCNAVAVAGRAFSYWGQGTQVTVSS
